Test results taken from patent publication US20240270826A1 (NATIONAL RESEARCH COUNCIL OF CANADA, published 2024).
Like-named read-outs stand apart in the source and are kept apart here.

B1: NRCoV2-17 VHH (VHH)
VHH: EVQLQQSGGGLVQTGGSLRLSCAAAGSPFSQLAMSWYRQISGKERAWVASISPTGNRSYSKIAKGRFTISRDNAKNTVTLQMTSLKPEDTAAYICQAANVNGGDYWGQGTQVTVSS
B2: NRCoV2-20 VHH (VHH)
VHH: EVQLQQSGGGLVQPGGSLRLSCAASGRTFSNYVVGWFRQAPQAPGKDHEFVAVISGSDTETYYADSVKGRFTISRDNAKNTVYLQMNSLKPEDTAVYYCAADRGMSYYYTRATEYYYWGQGTQVTVSS
B3: NRCoV2-MRed22 VHH (VHH)
VHH: EVQLVESGGGLVQPGGSLRLSCAASGSVFASNAMGWYRQAPGKQRELVATISSRGSTNYADSVKGRFTISRDNAKNTVYLQMNSLGPEDTAVYYCNAREFTGFDYWGQGTQVTVSS
B4: NRCoV2-MRed11 VHH (VHH)
VHH: EVQLVESGGGLVQAGGSLRLSCAASGFTFSSYAMSWHRQAPGKGLEWVSAINSGGGSTSYADSVKGRFAISRDNAKNTLYLQMNSLKPEDTAVYYCATTISDGSSWSTKSYRGQGTQVTVSS
B5: NRCoV2-05 VHH (VHH)
VHH: EVKLVQSGGGLVQPGGSLRLSCAASGFIFSNYAMNWVRQAPGKGLEWVSGINSGGGDTRYADSVKGRFTVSRDNAKNTLYLQMNSLKPEDTGVYYCSKGPVSSYYGSGYDYRGQGTQVTVSS
B6: NRCoV2-MRed07 VHH (VHH)
VHH: EVQLVESGGGLVQPGGSLTLSCAASGSIGPFNTMGWYRQAPGNQREPAAIITRGGVTNYADSVKGRFTISRDNAKNAVYLQMDSLKPDDTAVYYCYANYGWAIPYWGNGTQVTVSS
B7: NRCoV2-MRed03 VHH (VHH)
VHH: EVQLVESGGGLVQPGGSLRLSCAAIGFTLDYYAIGWFRQAPGKEREGVSCISSSDGSTYYADSVKGRFTISRDNAKNTVYLQMNSLKPEDTAVYYCATDAFATCDSWYAQIAQYDFRGQGTQVTVSS
B8: NRCoV2-S2A4 VHH (VHH)
VHH: QVQLVQSGGGLVQAGGSLRLSCAVSGSPFRSNVMEWYRQAPGKQRELVASISTGGSRTYTDSVKGRFTISRDNAKNEAFLQMNSLKPEDTAVYYCHAAARDSHGIYLLDTWGQGTQVTVSS
B9: NRCoV2-MRed04 VHH (VHH)
VHH: EVQLVESGGGLVQPGRSLRLSCAASGNSFSISTMGWFRQAPGKERELVASIWSDTTTSYADSVKGRFTISTDNTRTKVYLQMSSLNPEDTAVYYCAADRGFVVRGQYDYWGQGTQVTVSS
B10: NRCoV2-14 VHH (VHH)
VHH: EVQLVSSGGGLVQAGGSLRLSCEASGTTFSHYAVGWYRQAPGKQREWVASISVFGSTTYGGSVAGRFTISRDNDKNTVDLQMNSLKPEDTAVYYCHAVNADIGGDYWGQGTQVTVSS
B11: NRCoV2-S2G4 VHH (VHH)
VHH: QVQLVQSGGGLVQAGGSLTLSCAPSGSTFSGYATNWYRQAPGKQRELVATISSDGDKNYADSVKGRFTISRDNAKNTVYLQMNSLKPEDTAVYYCNKHWWTGDWWGQGTQVTVSS
B12: NRCoV2-MRed19 VHH (VHH)
VHH: EVQLVESGGGLVQPGGSLRLSCAASTIIFKGQTMGWFRQAPGNERELVATMTTSGSANYADSVKGRFTISRDNEKTVTLQMNSLKPEDTALYYCYMHSVYYGIDYWGKGTQVTVSS
B13: NRCoV2-SR16 VHH (VHH)
VHH: QVQLVQSAGGLVQAGGSLRLSCVVSGTTFSRYHMGWHRQAPGKQRDFVAGISTSGAVTYADSAKGRFTISRDNAKNTVYLEMNSLKLEDTALYYCNTGGWDYRSSTFIMGLNWGQGTQVTVSS
B14: NRCoV2-S2G3 VHH (VHH)
VHH: QVQLVQSGGGSVQAGGSLRLSCAASGSTFGIFLMGWRRQAPGKQRELVAHITSGGATNYADSVKGRFTISRDNAKNTVYLQMNSLEPEDTAVYYCYTTKRDDASVYWGQGTQVTVSS
B15: NRCoV2-MRed06 VHH (VHH)
VHH: EVQLVESGGGLVQAGGSLRLSCAASGFTLAYYAIGWFRQAPGKEREGVSCISSSDGSAHYADSVKGRFTISRDNAKNTVSLQMNSLKPEDTAVYYCATDSFSSCSDYESGMDFWGKGTQVTVSS
B16: NRCoV2-SR03 VHH (VHH)
VHH: AVQLVDSGGGLVQAGGSLRLSCAASGSIFSNNHMGWYRQAPGKQRELVAAISSGGKTNYADFAKGRFTISRDNAKNMVYLQMNSLKPEDTAVYYCNRGGWEYRSSYYIMGPHWGQGTQVTVSS
B17: NRCoV2-SR01 VHH (VHH)
VHH: EVQLVQSGGGSVQAGGSLRLSCVASGFTFDNYAIGWFRQAPGKEREGVSCISGNGGVTIYADSVKGRFTISRDNAKNLVYLQMNSLKPEDTAVYYCAATGIRSTWSVYGCSRLAGPYDYWGQGTQVTVSS
B18: NRCoV2-15 VHH (VHH)
VHH: EVQLVSSGGGLVEAGGSLRLSCIASGSTSGRNTMGWFRQAPGKQREWVAIVSTSGATNYAGSVKGRFTLSRDNAKNAVYLQMNNLKPEDTAVYYCYAAYGGGGDYWGQGTQVTVSS
B19: NRCoV2-MRed18 VHH (VHH)
VHH: EVQLVESGGGLVQPGGSLRLSCAASTTVFGRNAMGWYRQAPGKERELVATVSDGGTPNYADSVKGRFTISRDNAKNTIYLQMNSLEPEDTAVYYCNYYNYYYGRNFWGQGTQVTVSS
B20: NRCoV2-MRed25 VHH (VHH)
VHH: EVQLVESGGGLVQAGGSLRLSCAASGHTFSRYGMGWFRQAPGKEREFVAAISWRGDSTYYRDSVNGRFTISRDNAKNTVYLGMNSLKPEDTAVYYCAAEMWGTATIVASRYTYWGQGTQVTVSS
B21: NRCoV2-MRed20 VHH (VHH)
VHH: EVQLVESGGGSVQAGGSLRLSCAASGLSFSSYDMGWFRQAPGKEREFVAAIRESGSGTYYADSVKGRFTISRDNAKNTVYLQVSSLKPEDTAVYTCAAKPPFYGSGTYSTPRAYLYWGQGTQVTVSS
B22: NRCoV2-S2F3 VHH (VHH)
VHH: EVQLVQSGGGLVQAGGSLRLSCATSVRILSVPAMGWYRQAPGKEREMVAVITSGGSTNYADSVKGRFTISRDNAKNTVYLQMNSLKLEDTAVYQCNLRDILSQPFWGQGTQVTVSS
B23: NRCoV2-SR04 VHH (VHH)
VHH: QVQLVESGGGLVQAGGSLRLSCAASGRTFSSHTVGWYRQAPGKQRDLVAAISMGGNTNYADYADSVKGRFTISRDNAKNTLYLQMNSLKPEDTAVYYCNTAALVGNRLLPMATITWGQGTQVTVSS

Tests used:
[1] = target: T1, Human SARS-CoV-2_Wuhan S (SmT1) (SARS-CoV-2 (Wuhan), UniProt P0DTC2 14-1208); assay: SPR, VHH over immobilised S
SARS-CoV spike (S) = SARS-CoV spike (S) (SARS-CoV, UniProt P59594 14-1195); assay: SPR, VHH over immobilised S
[2] = target: T1, Human SARS-CoV-2_Wuhan S (SmT1); assay: SPR, VHH over immobilised S; remark: listed apart in the source
[3] = target: Human SARS-CoV-2_Wuhan S (SmT1) (SARS-CoV-2 (Wuhan), UniProt P0DTC2 14-1208); assay: flow cytometry SVNA, VHH vs biotin-S binding to Vero E6 ACE2

Binder	Kd [1] [nM]	koff [1] [s⁻¹]	kon [1] [M⁻¹ s⁻¹]	binding result (SARS-CoV spike (S))	Kd [2] [nM]	IC50 [3] [nM]	IC99 [3] [nM]	Imax % [3] [%]	Kd (SARS-CoV spike (S)) [nM]	koff (SARS-CoV spike (S)) [s⁻¹]	kon (SARS-CoV spike (S)) [M⁻¹ s⁻¹]
B1	0.154	9.45e-05	614000	no binding	0.15	–	–	–	–	–	–
B2	–	–	–	–	–	5.1	1370	43	–	–	–
B3	0.506	0.000176	347000	no binding	0.51	–	–	–	–	–	–
B4	6.2	0.000283	45700	no binding	6.2	–	–	–	–	–	–
B5	–	–	–	–	–	9.5	14.2	97	–	–	–
B6	0.105	0.000481	4.58e+06	no binding	0.11	–	–	–	–	–	–
B7	0.508	0.000121	237000	no binding	0.51	–	–	–	–	–	–
B8	12.8	0.000446	34900	no binding	12.8	–	–	–	–	–	–
B9	0.863	0.00131	1.51e+06	–	0.86	–	–	–	300	0.097	323000
B10	2.6	0.00101	389000	no binding	2.6	–	–	–	–	–	–
B11	0.232	0.000207	893000	–	0.23	–	–	–	0.799	0.000735	920000
B12	9.07	0.00118	131000	–	9.07	–	–	–	24.6	0.00614	249000
B13	1.96	0.000957	488000	no binding	2	–	–	–	–	–	–
B14	1.87	0.000606	324000	–	1.87	–	–	–	4.27	0.0008	187000
B15	5.19	0.000996	192000	no binding	5.2	–	–	–	–	–	–
B16	1.69	0.00113	670000	no binding	1.69	–	–	–	–	–	–
B17	0.564	0.000805	1.43e+06	–	0.56	–	–	–	0.154	0.000105	681000
B18	0.321	0.000222	691000	no binding	0.32	–	–	–	–	–	–
B19	6.03	0.00119	197000	–	6.03	–	–	–	22.5	0.00677	300000
B20	1.02	0.000115	112000	–	1.02	–	–	–	2.29	5.01e-05	21800
B21	0.0918	1.46e-05	160000	–	0.092	–	–	–	10.7	0.00406	380000
B22	3.03	0.000473	156000	–	3.03	–	–	–	4.91	0.00139	282000
B23	0.14	0.000515	3.68e+06	no binding	0.14	–	–	–	–	–	–
